In publication PMC9887757 (2023):

Target: 41F17
Assay: SPR; avidity

B1: BKPyV VLP genotype Ia (VP1 virus-like particles) (complex)
chain: MAPTKRKGECPGAAPKKPKEPVQVPKLLIKGGVEVLEVKTGVDAITEVECFLNPEMGDPDENLRGFSLKLSAENDFSSDSPERKMLPCYSTARIPLPNLNEDLTCGNLLMWEAVTVQTEVIGITSMLNLHAGSQKVHEHGGGKPIQGSNFHFFAVGGEPLEMQGVLMNYRSKYPDGTITPKNPTAQSQVMNTDHKAYLDKNNAYPVECWVPDPSRNENARYFGTFTGGENVPPVLHVTNTATTVLLDEQGVGPLCKADSLYVSAADICGLFTNSSGTQQWRGLARYFKIRLRKRSVKNPYPISFLLSDLINRRTQRVDGQPMYGMESQVEEVRVFDGTERLPGDPDMIRYIDKQGQLQTKML
Kd: 0.34 nM
